Target: catalase (PktA) from Psychrobacter piscatorii T-3 (Psychrobacter piscatorii T-3)
Assay: SEC; gel filtration on two Protein PAK 300 columns, 0.1 M potassium phosphate buffer (pH 7.0), against mass standards; native mass compared with the subunit mass by SDS-PAGE

stoichiometry N: 4
Substance: catalase (PktA) from Psychrobacter piscatorii T-3 (enzyme)
